Data: paper PMC7266990

Assays:
Conditions in all cases: SPR per cited protocol (Gsaller 2016; buffer not given), CBC 3.13-200 nM, 1:1 model with mass transport; SEC: 20 mM Tris/HCl, 150 mM NaCl, 1 mM DTT, pH 7.5
[1] = target: Afu_CBC HapE P88L (core) P88L (Aspergillus fumigatus) (UniProt Q4WDM9); experiment: SPR
[2] = target: Afu_CBC HapE P88L (SPR co-injection construct);HapX bZIP peptide P88L (Aspergillus fumigatus;Aspergillus fumigatus) (UniProt Q4WDM9+Q4WER3); experiment: SPR co-injection
[3] = target: An_CBC HapE P88L (Aspergillus nidulans) (UniProt G5EAZ0+Q5B5Z6+Q5AYY8); experiment: SPR
[4] = target: An_CBC wt (HapB/HapC/HapE core) (Aspergillus nidulans) (UniProt G5EAZ0+Q5B5Z6+Q5AYY8); experiment: SPR

Q: With “AAATCCACCAATCAACGCCTCCGTG (double strand) [Afu_cccA 25 bp SPR duplex]” as the sequence, how does the Kd [1] read?
A: Its Kd is 0.429 µM.

Q: For “AAATCCACCAATCAACGCCTCCGTGATTGTCAGCAAT (double strand) [Afu_cccA SPR co-injection duplex (CBC and HapX sites)]”, which binding signal (fold half-life vs binary P88L CBC-DNA) [2] is on record?
A: Its binding signal (fold half-life vs binary P88L CBC-DNA) is 7.

Q: Which Kd [1] does the source give for “ACCCGAGCCAATCAGAGCGAAGTGA (double strand) [An_cccA 25 bp SPR duplex]” here?
A: The Kd was 2 µM.

Q: What about the Kd [3] of the same sequence?
A: Its Kd is 2 µM.

Q: How did the Kd [1] turn out when “GAATTGACCAATCAGAGGTAGGATG (double strand) [An_cycA 25 bp SPR duplex]” was run?
A: Its Kd is 0.1 µM.

Q: And the Kd [3]?
A: The Kd was 0.116 µM.

Q: And the Kd [4]?
A: Its Kd is 0.00083 µM.
